Measured values: patent US20210284694A1 (published 2021)
Starred links: 1 amine or outer side, 2 acyl side, 3 side chain; linkers in the order of their positions; H or OH if unused. Positions of bridges follow the written chain, without caps; N, C: chain ends. Non-standard residues stand in square brackets, D forms with d. Phe(4-OMe) = COc1ccc(C[C@H](N[*:1])C(=O)[*:2])cc1; Trp(5-F) = N[C@@H](Cc1c[nH]c2ccc(F)cc12)C(=O)O; mXylylene = c1cc(C[*:1])cc(C[*:2])c1; αMeP = C[C@@]1(C(=O)O)CCCN1; Mpa = O=C(O)CCS

Assays:
biotinylated PCSK9 [1] = molecular target: T1, biotinylated PCSK9 (UniProt Q8NBP7 31-692, limits assumed, biotinylated); test: method of the KD not told; tracer of the Alexa FRET Standard assay
T1 construct: also called europium-labeled PCSK9
T1 sequence (Q8NBP7 31-692 limits assumed): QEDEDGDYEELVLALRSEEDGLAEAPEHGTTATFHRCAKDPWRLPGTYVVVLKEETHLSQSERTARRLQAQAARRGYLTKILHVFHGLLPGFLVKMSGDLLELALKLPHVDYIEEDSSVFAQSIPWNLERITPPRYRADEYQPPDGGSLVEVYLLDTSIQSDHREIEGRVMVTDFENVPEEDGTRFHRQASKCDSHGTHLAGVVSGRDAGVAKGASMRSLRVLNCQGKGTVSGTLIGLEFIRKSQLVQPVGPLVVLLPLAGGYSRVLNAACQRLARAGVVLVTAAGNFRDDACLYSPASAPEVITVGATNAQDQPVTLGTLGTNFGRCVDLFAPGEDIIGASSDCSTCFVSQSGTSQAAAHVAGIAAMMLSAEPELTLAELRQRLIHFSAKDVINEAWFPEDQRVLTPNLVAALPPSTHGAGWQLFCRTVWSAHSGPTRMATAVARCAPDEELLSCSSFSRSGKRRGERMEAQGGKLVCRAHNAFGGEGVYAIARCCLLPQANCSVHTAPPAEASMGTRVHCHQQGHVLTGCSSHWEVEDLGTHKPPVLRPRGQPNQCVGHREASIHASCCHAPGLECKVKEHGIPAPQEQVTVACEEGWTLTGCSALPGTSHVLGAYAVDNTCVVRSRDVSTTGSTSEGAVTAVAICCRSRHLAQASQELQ

biotinylated PCSK9 [2] = molecular target: T1, biotinylated PCSK9; test: method of the KD not told; tracer of the Alexa FRET Plus assay

| Binder | Kd (biotinylated PCSK9 [1]) [nM] | Kd (biotinylated PCSK9 [2]) [nM] |
| --- | --- | --- |
| [Mpa]K(AlexaFluor647)G[Trp(5-F)][Trp(5-F)]DHY[αMeP]C-NH2 (linker N-10 via mXylylene, also called AlexaFluor647 (AF) tagged cyclic peptide; AF cyclic peptide) [Reagent A] | 83 |  |
| [Mpa]K(AlexaFluor647)[dA][Trp(5-F)][Trp(5-F)]DH[Phe(4-OMe)][αMeP]C-NH2 (linker N-10 via mXylylene, also called AlexaFluor647 (AF) tagged cyclic peptide; AF cyclic peptide) [Reagent B] |  | 35 |
